The record followed here is US20240415930A1, “COMPOSITIONS AND METHODS FOR ENHANCING BRAIN PERFUSION” (Washington University, priority 2021, published 2024).

“Also recorded” adds a separate entry of the source.

In this experiment the test system is perivascular macrophages (PVMs). Nature of the experiment: M-CSF treatment of aged mice: OVA tracer diffusion/coverage (CSF flow). The experiment is classed as in vivo. Here is the method:
FIG. 3U is a schematic diagram summarizing an experimental design to determine the effect of M-CSF treatment on CSF flow in aged mice.
FIG. 7D is a schematic diagram summarizing an experimental design wherein old mice were treated with M-CSF (or aCSF as a control group). Six hours after treatment, mice received OVA via ICM injection, and brains were harvested one hour after OVA diffusion.
First, it was observed that tracer diffusion in aged mice (24-month-old) was impaired compared to young/adult mice (3-month-old) (FIGS. 7A, 7B, 7C, 7D, 7E, and 7F).

B1: macrophage colony stimulating factor (protein, UniProt P07141 33-552, looked up)
Macrophage colony-stimulating …: KEVSEHCSHMIGNGHLKVLQQLIDSQMETSCQIAFEFVDQEQLDDPVCYLKKAFFLVQDIIDETMRFKDNTPNANATERLQELSNNLNSCFTKDYEEQNKACVRTFHETPLQLLEKIKNFFNETKNLLEKDWNIFTKNCNNSFAKCSSRDVVTKPDCNCLYPKATPSSDPASASPHQPPAPSMAPLAGLAWDDSQRTEGSSLLPSELPLRIEDPGSAKQRPPRSTCQTLESTEQPNHGDRLTEDSQPHPSAGGPVPGVEDILESSLGTNWVLEEASGEASEGFLTQEAKFSPSTPVGGSIQAETDRPRALSASPFPKSTEDQKPVDITDRPLTEVNPMRPIGQTQNNTPEKTDGTSTLREDHQEPGSPHIATPNPQRVSNSATPVAQLLLPKSHSWGIVLPLGELEGKRSTRDRRSPAELEGGSASEGAARPVARFNSIPLTDTGHVEQHEGSSDPQIPESVFHLLVPGIILVLLTVGGLLFYKWKWRSHRDPQTLDSSVGRPEDSSLTQDEDRQVELPV
For the molecule B1, the “OVA tracer diffusion/coverage through the brain” value (aged (24-month-old) mice, OVA ICM six hours after ICM M-CSF, brains harvested one hour later, vs aCSF) is given as “improved tracer diffusion through the brain tissue; also recorded: increase in OVA diffusion/coverage compared to aCSF-treated mice; also recorded: improved perfusion of the brains in older mice”. For the same molecule, the “state of perivascular macrophages” value (older mice, ICM injection) is on record as “rejuvenated the perivascular macrophages”.
